The supplement of paper PMC10567573

B1: ZNF263 (parent)
chain: RTHTGEKPYKCTLCGENFSHRSNL

Variants of: B1
Experiment: protein stability index of a GFP-peptide fusion (GPS, HEK-293T) (PSI 1-6); higher = more stable
Conditions: c terminus: a fixed tail appended
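Note: lentivirally expressed fusions sorted by FACS into six bins by GFP to DsRed ratio, PSI derived from sequencing read proportions per bin multiplied by bin number.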

Protein stability index: each site, then its substitutions
G15: V 1.57; S 1.62; W 1.84; Q 2.15; F 2.17; Y 1.82; L 1.97; I 2.13; A 1.68; T 1.79; P 2.57; D 2.1; N 1.87
Y9: P 2.04; Q 1.84; C 3.37; G 1.6; I 1.52; A 2.15; M 1.69; V 2.33; K 2.45; W 1.72; T 2.33; R 2.14; D 2.44
N23: G 2.06; Q 1.91; A 2.28; C 3.48; L 1.69; V 1.94; I 2.32; T 1.94; M 2.03; R 2.17; D 1.88; S 2.05; P 2.6
L13: S 2.64; K 2.18; V 2.14; N 3.03; H 2.06; C 2.81; G 2.42; D 3.21; W 1.88; F 2.2; E 3.3; M 1.76; I 2.44; Q 2.16; Y 2.04; P 2.31
E6: L 2.18; W 1.58; Y 2.64; C 2.44; I 1.69; F 1.62; P 2.68; N 1.67; M 2.37; K 1.9; G 1.88; A 2.15; S 2.39; V 2.08; D 2.37; R 2.34
C11: S 3.36; W 2.04; H 3.13; M 2.78; E 3.97; G 3.59; L 2.9; V 2.51; I 2.56; A 2.67; K 2.92; R 2.81; F 2.06; P 3.02; Q 3.24
N17: D 1.7; E 2.4; S 2.02; V 1.92; T 1.6; H 2.15; F 2.07; R 2.09; M 1.76; Y 1.91; L 1.98; Q 1.91; I 2.26; W 2.42
T4: N 2.1; F 2.05; I 1.82; V 1.69; L 1.79; R 3.78; H 1.91; C 2.04; E 2.77; M 2.1; W 1.75; Q 2.01; S 2.03; G 2.02; K 2.43; D 1.87; P 2.34; Y 2.43
K7: Y 1.73; T 1.94; P 1.62; R 2.04; V 2.37; I 1.99; C 3.39; H 2.19; E 2.12; S 2.2; L 1.86; M 1.97; W 2.03
S19: E 2.29; K 1.66; Q 2.09; T 1.91; R 2.01; C 2.06; A 2.21; W 1.74; H 1.48; Y 1.97; F 2.12; V 2.51; M 1.96; I 2.81
S22: C 3.19; A 1.83; Y 1.63; K 2.46; W 1.44; I 1.9; E 2.23; H 2.4; Q 2.01; L 1.94; R 2.4; P 1.79; V 1.91; N 2.33
K10: Y 1.93; T 1.78; M 1.97; S 1.58; F 1.76; Q 2.36; P 2.03; H 2.2; N 1.91; D 2.68; C 2.44; E 2.04; R 1.81
C14: A 3.07; I 2.98; Q 3.45; N 3.19; W 2.39; G 3.13; T 3.37; P 2.83; F 2.66; S 3.01; H 2.84; E 4.05; M 3.43; K 3.48
E16: R 2.03; M 1.86; I 1.83; F 2.3; P 1.94; Y 2.08; A 1.8; L 1.5; V 2.17; H 1.87; K 1.59; D 1.93; T 2.51
F18: Y 1.91; L 1.96; N 2.09; M 1.82; E 2.22; D 2.27; V 1.88; I 2.17; Q 2.1; K 1.74; R 2.15; T 1.95
H20: Q 2.26; K 1.8; F 1.67; T 2.11; E 2.04; L 2.03; D 1.84; G 1.92; Y 2.13; S 2.32; W 2.28; A 2.06; M 1.98; R 1.94
T2: Q 2.02; G 1.74; A 2.02; M 1.97; N 2.28; L 2.17; I 1.98; Y 1.45; E 1.76; S 2.1; V 2.52
R21: D 3.15; G 2.3; T 2.11; E 2.69; M 2.22; F 2.01; H 2.21; W 1.68; Q 1.94; N 2.19; V 1.98; C 2.46
L24: G 2.82; C 4; W 1.82; T 2.4; I 2.15; Q 2.33; D 2.39; S 2.52; Y 1.78; R 1.95; M 1.91; H 2.42; V 2.49
T12: A 2.07; F 2.1; D 2.01; N 2.44; W 2.22; I 1.92; Y 1.5; L 2.23; G 1.74; K 1.98; E 1.8; S 1.87; R 2.37
H3: M 2.19; E 1.74; T 1.93; K 2.05; S 2.18; I 2.58; Q 2.31; V 1.85; P 2; C 1.61; F 2.15; R 2.58; G 1.93; Y 1.93
G5: N 2.3; S 1.7; A 1.59; L 1.88; Q 2.46; M 2.13; P 1.88; Y 1.63; H 2.22; R 2.2; T 2.24; W 2.4; I 2.06; K 2.37; E 2.46
R1: I 2.12; C 3.43; L 2.39; S 1.89; G 1.8; F 2.41; W 1.99; Q 1.79; M 1.38; K 2.22; A 2.03; E 2.13; V 2.27; Y 2.17; H 3.08
P8: M 2.3; S 1.78; H 2.06; C 2.51; L 1.98; R 1.99; T 1.9; W 1.46; N 1.96; I 1.63; A 2.1; V 1.91; G 2.44; Y 1.64; D 2.44; Q 2.09
